Paper PMC12386762

Target: Escherichia coli RecA (Escherichia coli) (UniProt P0A7G6)
Sequence (P0A7G6 whole entry): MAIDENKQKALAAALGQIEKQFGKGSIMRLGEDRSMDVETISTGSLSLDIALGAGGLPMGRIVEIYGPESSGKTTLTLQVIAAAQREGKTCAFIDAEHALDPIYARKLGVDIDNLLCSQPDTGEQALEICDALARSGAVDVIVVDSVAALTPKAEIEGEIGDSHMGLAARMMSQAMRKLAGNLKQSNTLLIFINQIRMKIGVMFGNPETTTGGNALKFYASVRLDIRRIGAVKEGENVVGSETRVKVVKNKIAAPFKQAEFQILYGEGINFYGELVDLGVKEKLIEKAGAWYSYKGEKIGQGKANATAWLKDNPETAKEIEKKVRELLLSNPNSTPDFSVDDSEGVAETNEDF

B1: Bacillus subtilis DprA (natural protein)
chain: MDQAAVCLTICRINQLLSPSLLLKWWKADPSMSLTSPVLQTVTRDQIKAAALKNEIEQFYPKLPRVLAAYREQGINTIPISSKQYPFWLKSIYDPPAVLFAKGDMTLLSKGRKIGIVGTRNPTAYGKQVVNHLTKEICRKGWVIVSGLASGIDGMSHAASIKAKGRTIGVIAGGFQHIYPRENLQLADHMAKHHILLSEHPPETKPQKWHFPMRNRIISGLSEGVIVVQGKEKSGSLITAYQALEQGREVFAVPGSLFDPYAGGPIKLIQQGAKAIWSAEDIFEELPERNVQYTEPF
In the case of B1, the activation of RecAEco (5 uM) dATP hydrolysis on (dT)21 by 0.3 uM DprABsu, against RecAEco alone is reported as 7 to 8 fold.
